Square brackets hold non-standard residues; d marks the D form. Ends that are not written are not given here. Aib = CC(C)(N)C(=O)O
Tests used:
[1] = molecular target: human glucagon-like peptide-1 receptor (human, UniProt P43220); test: cell-based or functional assay
[2] = molecular target: T1, human glucose-dependent insulinotropic peptide receptor (human, UniProt P48546); test: cell-based or functional assay
T1 sequence: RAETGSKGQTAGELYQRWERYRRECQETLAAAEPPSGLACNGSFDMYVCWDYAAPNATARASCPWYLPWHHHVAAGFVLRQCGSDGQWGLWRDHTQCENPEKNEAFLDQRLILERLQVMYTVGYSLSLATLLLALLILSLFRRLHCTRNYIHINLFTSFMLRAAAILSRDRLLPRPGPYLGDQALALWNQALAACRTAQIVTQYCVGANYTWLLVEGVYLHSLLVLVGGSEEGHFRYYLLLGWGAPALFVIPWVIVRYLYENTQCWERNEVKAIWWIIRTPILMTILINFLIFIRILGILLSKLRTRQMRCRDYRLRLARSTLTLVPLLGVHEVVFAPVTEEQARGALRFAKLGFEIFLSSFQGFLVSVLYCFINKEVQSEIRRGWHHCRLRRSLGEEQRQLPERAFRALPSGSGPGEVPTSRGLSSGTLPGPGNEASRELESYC

Binder	Activity for human GLP-1R (EC50 nM), cAMP HTRF [1] [nM]	Activity for human GIPR (EC50 nM), cAMP HTRF [2] [nM]
H[Aib]EGTFTSDVSSYLEEEAAKEFIAWLVRGGPSSGAPPPSK-NH2 (N-terminus assumed; SMILES CC[C@H](C)[C@H](NC(=O)[C@H](Cc1ccccc1)NC(=O)[C@H](CCC(=O)O)NC(=O)[C@H](CCCCN)NC(=O)[C@H](C)NC(=O)[C@H](C)NC(=O)[C@H](CCC(=O)O)NC(=O)[C@H](CCC(=O)O)NC(=O)[C@H](CCC(=O)O)NC(=O)[C@H](CC(C)C)NC(=O)[C@H](Cc1ccc(O)cc1)NC(=O)[C@H](CO)NC(=O)[C@H](CO)NC(=O)[C@@H](NC(=O)[C@H](CC(=O)O)NC(=O)[C@H](CO)NC(=O)[C@@H](NC(=O)[C@H](Cc1ccccc1)NC(=O)[C@@H](NC(=O)CNC(=O)[C@H](CCC(=O)O)NC(=O)C(C)(C)NC(=O)[C@@H](N)Cc1c[nH]cn1)[C@@H](C)O)[C@@H](C)O)C(C)C)C(=O)N[C@@H](C)C(=O)N[C@@H](Cc1c[nH]c2ccccc12)C(=O)N[C@@H](CC(C)C)C(=O)N[C@H](C(=O)N[C@@H](CCCNC(=N)N)C(=O)NCC(=O)NCC(=O)N1CCC[C@H]1C(=O)N[C@@H](CO)C(=O)N[C@@H](CO)C(=O)NCC(=O)N[C@@H](C)C(=O)N1CCC[C@H]1C(=O)N1CCC[C@H]1C(=O)N1CCC[C@H]1C(=O)N[C@@H](CO)C(=O)N[C@@H](CCCCN)C(N)=O)C(C)C) [Compound No. 1]	0.005	> 10
Y[Aib]EGTFTSDYSIYLEKEAAKEFVQWLLAGGPSSGAPPPS-NH2 (N-terminus assumed; SMILES CC[C@H](C)[C@H](NC(=O)[C@H](CO)NC(=O)[C@H](Cc1ccc(O)cc1)NC(=O)[C@H](CC(=O)O)NC(=O)[C@H](CO)NC(=O)[C@@H](NC(=O)[C@H](Cc1ccccc1)NC(=O)[C@@H](NC(=O)CNC(=O)[C@H](CCC(=O)O)NC(=O)C(C)(C)NC(=O)[C@@H](N)Cc1ccc(O)cc1)[C@@H](C)O)[C@@H](C)O)C(=O)N[C@@H](Cc1ccc(O)cc1)C(=O)N[C@@H](CC(C)C)C(=O)N[C@@H](CCC(=O)O)C(=O)N[C@@H](CCCCN)C(=O)N[C@@H](CCC(=O)O)C(=O)N[C@@H](C)C(=O)N[C@@H](C)C(=O)N[C@@H](CCCCN)C(=O)N[C@@H](CCC(=O)O)C(=O)N[C@@H](Cc1ccccc1)C(=O)N[C@H](C(=O)N[C@@H](CCC(N)=O)C(=O)N[C@@H](Cc1c[nH]c2ccccc12)C(=O)N[C@@H](CC(C)C)C(=O)N[C@@H](CC(C)C)C(=O)N[C@@H](C)C(=O)NCC(=O)NCC(=O)N1CCC[C@H]1C(=O)N[C@@H](CO)C(=O)N[C@@H](CO)C(=O)NCC(=O)N[C@@H](C)C(=O)N1CCC[C@H]1C(=O)N1CCC[C@H]1C(=O)N1CCC[C@H]1C(=O)N[C@@H](CO)C(N)=O)C(C)C) [Compound No. 64]	0.02	0.033
Y[Aib]EGTFTSDYSIYLEKEAAKEFINWLLAGGPSSGAPPPS-NH2 (N-terminus assumed; SMILES CC[C@H](C)[C@H](NC(=O)[C@H](Cc1ccccc1)NC(=O)[C@H](CCC(=O)O)NC(=O)[C@H](CCCCN)NC(=O)[C@H](C)NC(=O)[C@H](C)NC(=O)[C@H](CCC(=O)O)NC(=O)[C@H](CCCCN)NC(=O)[C@H](CCC(=O)O)NC(=O)[C@H](CC(C)C)NC(=O)[C@H](Cc1ccc(O)cc1)NC(=O)[C@@H](NC(=O)[C@H](CO)NC(=O)[C@H](Cc1ccc(O)cc1)NC(=O)[C@H](CC(=O)O)NC(=O)[C@H](CO)NC(=O)[C@@H](NC(=O)[C@H](Cc1ccccc1)NC(=O)[C@@H](NC(=O)CNC(=O)[C@H](CCC(=O)O)NC(=O)C(C)(C)NC(=O)[C@@H](N)Cc1ccc(O)cc1)[C@@H](C)O)[C@@H](C)O)[C@@H](C)CC)C(=O)N[C@@H](CC(N)=O)C(=O)N[C@@H](Cc1c[nH]c2ccccc12)C(=O)N[C@@H](CC(C)C)C(=O)N[C@@H](CC(C)C)C(=O)N[C@@H](C)C(=O)NCC(=O)NCC(=O)N1CCC[C@H]1C(=O)N[C@@H](CO)C(=O)N[C@@H](CO)C(=O)NCC(=O)N[C@@H](C)C(=O)N1CCC[C@H]1C(=O)N1CCC[C@H]1C(=O)N1CCC[C@H]1C(=O)N[C@@H](CO)C(N)=O) [Compound No. 63]	0.01	0.02
Y[Aib]EGTFTSDYSIYLEKEAAKEFIQWLLAGGPSSGAPPPS-NH2 (N-terminus assumed; SMILES CC[C@H](C)[C@H](NC(=O)[C@H](Cc1ccccc1)NC(=O)[C@H](CCC(=O)O)NC(=O)[C@H](CCCCN)NC(=O)[C@H](C)NC(=O)[C@H](C)NC(=O)[C@H](CCC(=O)O)NC(=O)[C@H](CCCCN)NC(=O)[C@H](CCC(=O)O)NC(=O)[C@H](CC(C)C)NC(=O)[C@H](Cc1ccc(O)cc1)NC(=O)[C@@H](NC(=O)[C@H](CO)NC(=O)[C@H](Cc1ccc(O)cc1)NC(=O)[C@H](CC(=O)O)NC(=O)[C@H](CO)NC(=O)[C@@H](NC(=O)[C@H](Cc1ccccc1)NC(=O)[C@@H](NC(=O)CNC(=O)[C@H](CCC(=O)O)NC(=O)C(C)(C)NC(=O)[C@@H](N)Cc1ccc(O)cc1)[C@@H](C)O)[C@@H](C)O)[C@@H](C)CC)C(=O)N[C@@H](CCC(N)=O)C(=O)N[C@@H](Cc1c[nH]c2ccccc12)C(=O)N[C@@H](CC(C)C)C(=O)N[C@@H](CC(C)C)C(=O)N[C@@H](C)C(=O)NCC(=O)NCC(=O)N1CCC[C@H]1C(=O)N[C@@H](CO)C(=O)N[C@@H](CO)C(=O)NCC(=O)N[C@@H](C)C(=O)N1CCC[C@H]1C(=O)N1CCC[C@H]1C(=O)N1CCC[C@H]1C(=O)N[C@@H](CO)C(N)=O) [Compound No. 65]	0.013	0.027
Y[Aib]EGTFTSDYSIYLEKIAAQEFVNWLLAQKPSSGAPPPSK-NH2 (N-terminus assumed; SMILES CC[C@H](C)[C@H](NC(=O)[C@H](CCCCN)NC(=O)[C@H](CCC(=O)O)NC(=O)[C@H](CC(C)C)NC(=O)[C@H](Cc1ccc(O)cc1)NC(=O)[C@@H](NC(=O)[C@H](CO)NC(=O)[C@H](Cc1ccc(O)cc1)NC(=O)[C@H](CC(=O)O)NC(=O)[C@H](CO)NC(=O)[C@@H](NC(=O)[C@H](Cc1ccccc1)NC(=O)[C@@H](NC(=O)CNC(=O)[C@H](CCC(=O)O)NC(=O)C(C)(C)NC(=O)[C@@H](N)Cc1ccc(O)cc1)[C@@H](C)O)[C@@H](C)O)[C@@H](C)CC)C(=O)N[C@@H](C)C(=O)N[C@@H](C)C(=O)N[C@@H](CCC(N)=O)C(=O)N[C@@H](CCC(=O)O)C(=O)N[C@@H](Cc1ccccc1)C(=O)N[C@H](C(=O)N[C@@H](CC(N)=O)C(=O)N[C@@H](Cc1c[nH]c2ccccc12)C(=O)N[C@@H](CC(C)C)C(=O)N[C@@H](CC(C)C)C(=O)N[C@@H](C)C(=O)N[C@@H](CCC(N)=O)C(=O)N[C@@H](CCCCN)C(=O)N1CCC[C@H]1C(=O)N[C@@H](CO)C(=O)N[C@@H](CO)C(=O)NCC(=O)N[C@@H](C)C(=O)N1CCC[C@H]1C(=O)N1CCC[C@H]1C(=O)N1CCC[C@H]1C(=O)N[C@@H](CO)C(=O)N[C@@H](CCCCN)C(N)=O)C(C)C) [Compound No. 24]	0.083	0.008

From US20220168396A1, “MULTI-RECEPTOR AGONIST AND MEDICAL USE THEREOF” (published 2022)
